The results in this text go back to patent publication US20260374828 (published 2026).

The labels stand for the following.
B1: Peptide 1-12 (peptide)
chain: Ac-DELEPLTGF[dR][dR]RR-NH2
SMILES: CC(=O)N[C@@H](CC(=O)O)C(=O)N[C@@H](CCC(=O)O)C(=O)N[C@@H](CC(C)C)C(=O)N[C@@H](CCC(=O)O)C(=O)N1CCC[C@H]1C(=O)N[C@@H](CC(C)C)C(=O)N[C@H](C(=O)NCC(=O)N[C@@H](Cc1ccccc1)C(=O)N[C@H](CCCNC(=N)N)C(=O)N[C@H](CCCNC(=N)N)C(=O)N[C@@H](CCCNC(=N)N)C(=O)N[C@@H](CCCNC(=N)N)C(N)=O)[C@@H](C)O
B2: PLP 1-3 (peptide)
chain: RRDELEPLTGFRR
modifications: also: polynorbornene brush polymer conjugate, multivalent
B3: Peptide 1-13 (peptide)
chain: Ac-DELEPLTGFRR[dR][dR]-NH2
SMILES: CC(=O)N[C@@H](CC(=O)O)C(=O)N[C@@H](CCC(=O)O)C(=O)N[C@@H](CC(C)C)C(=O)N[C@@H](CCC(=O)O)C(=O)N1CCC[C@H]1C(=O)N[C@@H](CC(C)C)C(=O)N[C@H](C(=O)NCC(=O)N[C@@H](Cc1ccccc1)C(=O)N[C@@H](CCCNC(=N)N)C(=O)N[C@@H](CCCNC(=N)N)C(=O)N[C@H](CCCNC(=N)N)C(=O)N[C@H](CCCNC(=N)N)C(N)=O)[C@@H](C)O
B4: PLP 1-12 (peptide)
chain: DELEPLTGF[dR][dR]RR
modifications: also: polynorbornene brush polymer conjugate, multivalent

Where no end group is shown, it is not given here. [ ]: non-standard residue; d: D form.

This assay deals with Keap1 Kelch domain (UniProt Q14145). As to the kind of experiment: other TR-FRET. On the technique in general: TR-FRET usually uses a lanthanide donor and a delayed reading to cut background.
Sequence of Keap1 Kelch domain (Q14145 whole entry, the tested form may be a part): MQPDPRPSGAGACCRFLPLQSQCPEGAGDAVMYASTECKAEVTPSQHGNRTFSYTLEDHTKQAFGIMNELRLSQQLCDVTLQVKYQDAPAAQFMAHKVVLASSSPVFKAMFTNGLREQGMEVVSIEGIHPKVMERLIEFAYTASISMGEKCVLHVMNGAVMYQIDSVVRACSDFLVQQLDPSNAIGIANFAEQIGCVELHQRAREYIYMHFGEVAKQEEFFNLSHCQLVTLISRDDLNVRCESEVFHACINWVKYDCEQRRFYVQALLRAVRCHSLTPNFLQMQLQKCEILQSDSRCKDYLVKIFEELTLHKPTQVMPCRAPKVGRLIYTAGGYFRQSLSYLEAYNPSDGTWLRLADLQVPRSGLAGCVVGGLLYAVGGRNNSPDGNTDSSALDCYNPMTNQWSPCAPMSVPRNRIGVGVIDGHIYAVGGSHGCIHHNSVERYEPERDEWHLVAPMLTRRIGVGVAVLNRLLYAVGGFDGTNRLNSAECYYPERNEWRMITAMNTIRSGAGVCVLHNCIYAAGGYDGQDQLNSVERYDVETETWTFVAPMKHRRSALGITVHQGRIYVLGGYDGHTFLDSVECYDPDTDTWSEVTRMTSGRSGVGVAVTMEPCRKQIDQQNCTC
For orientation: IC50 means the midpoint of a concentration-inhibition curve. A higher IC50 goes with weaker potency in that assay. B1 gave an IC50 of 13.3 nM.

As to B2, the 50% inhibitory concentration (IC50) was 0.12 nM.

Consider B3, for which the IC50 came to 8.8 nM.

B4 registered a half-maximal inhibitory concentration (IC50) of 0.17 nM.
